Data as given in patent publication US20260209316A1.

Tests used:
[1] = target: full-length Sudan GP (GPFL) (Sudan virus (SUDV)) (UniProt Q7T9D9); assay: BLI, Fab, pH 5.3
[2] = target: full-length Sudan GP (GPFL) (Sudan virus (SUDV)) (UniProt Q7T9D9); assay: BLI, Fab, pH 7.4
[3] = target: thermolysin-cleaved SUDV GP (GP(S)THL) (Sudan virus (SUDV)) (UniProt Q7T9D9); assay: BLI, Fab, pH 5.3
[4] = target: thermolysin-cleaved SUDV GP (GP(S)THL) (Sudan virus (SUDV)) (UniProt Q7T9D9); assay: BLI, Fab, pH 7.4

B1: Fab generated from 246S (Fab, V domains shown)
VH: QVQLVQSGAEVKKPGSSVKVSCKASGDTFSTYAITWVRQAPGQGLEWMGRIIPILGVTNYAQKFQGRVTFTADKSTITAYLELVNLRSEDTAVYYCTRDGYGGRDLLLNYYWGQGTLVTVSS
VL: EIVLTQSPGLLFWFPGERATLSCRASQSVSSSKLAWYQQKPGQAPRLLIYGASSRAPGIPDRFSGSGSGTDFTLTINRLEPEDFAVYFCQQYGSAQWTFGQGTKVDFK
For B1, the Kd [1] was 34.2 nM, the koff [1] was 0.000384 s⁻¹ and the kon [1] was 11200 M⁻¹ s⁻¹. For the same binder, the Kd [2] was 23.2 nM, the koff [2] was 0.000493 s⁻¹ and the kon [2] was 21200 M⁻¹ s⁻¹.

B2: Fab generated from 291S (Fab, V domains shown)
VH: QVQLQESGPGLVKPSQTLSLTCTVSGGSFSSGFYWSWIRQRPGKGLEWVGYTYYSGSTYYNPSLQSRVTISVDTSKNQFSLNLSSVTAADTAVYHCARADYGGLFDYWGQGILVTVSS
VL: QSVLTQPSSLSASPGASASLTCTLRSGINVGTYRIFWYQQKPGSPPQFLLRYNSDSDKQQGSGVPSRFSGSKDASANAGILLISGLQSEDEADYYCMIWHTSAWVFGGGTKLTVL
B2 showed a Kd [3] of 0.67 nM, a koff [3] of 0.000166 s⁻¹ and a kon [3] of 248000 M⁻¹ s⁻¹. For the same binder, the Kd [4] was 0.19 nM, the koff [4] was 5.1e-05 s⁻¹ and the kon [4] was 264000 M⁻¹ s⁻¹.
